Target: IFNβ in spent medium of HEp-2 cells transfected with siPUM1 (UniProt P01574)
Assay: cell-based or functional assay

Sequence of UniProt P01574 (P01574 22-187 limits assumed): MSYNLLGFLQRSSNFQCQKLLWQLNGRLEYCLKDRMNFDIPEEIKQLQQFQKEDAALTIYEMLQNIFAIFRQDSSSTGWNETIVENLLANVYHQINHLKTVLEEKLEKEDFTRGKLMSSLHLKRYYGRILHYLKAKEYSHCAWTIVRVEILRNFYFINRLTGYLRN

Substance: anti-IFNβ antibody (R&D Systems, MAB814-100)
- accumulation of HSV-1 viral proteins (immunoblot) in HEp-2 cells exposed to siPUM1 spent medium pre-incubated with antibody, IFN neutralization assay: 2 to 4 fold
